Data: US20180079819A1 (IMMUNOGEN, published 2018)
Positions count from the first letter of the chain named. “And” between values parts separate entries of the source, which are not always exact repeats. Identical values can stand only once. Like-named read-outs stand apart in the source and are kept apart here.

Assays:
[1] = biological target: T1, human CD123 (IL-3Rα, interleukin-3 receptor alpha chain) (human, UniProt P26951 19-378); assay: flow cytometry on HNT-34 cells; apparent Kd
T1 construct: CD123 on human cell lines (TF-1, HNT-34, MOLM-13 and other AML, B-ALL, CML and NHL lines) or on 300-19 cells stably expressing human CD123; also called CD123 antigen; human CD123 antigen

[2] = biological target: T1, human CD123 (IL-3Rα, interleukin-3 …); assay: flow cytometry on HNT-34 cells, apparent Kd against that of 7G3
[3] = biological target: T1, human CD123 (IL-3Rα, interleukin-3 …); assay: flow cytometry on HNT-34 cells, PE-conjugated goat anti-human secondary
[4] = biological target: T1, human CD123 (IL-3Rα, interleukin-3 …); assay: cell-based or functional assay
[5] = biological target: T2, extracellular domain of CD123/IL-3Rα (residues 1-306), histidine tagged (human, UniProt P26951 19-306); assay: ELISA on plate-coated His-tagged protein, A450
T2 construct: Expressed in HEK 293T cells, purified on Ni Sepharose, coated on ELISA plates; also called wild type IL-3Rα; wild-type IL-3Rα construct
T2 sequence: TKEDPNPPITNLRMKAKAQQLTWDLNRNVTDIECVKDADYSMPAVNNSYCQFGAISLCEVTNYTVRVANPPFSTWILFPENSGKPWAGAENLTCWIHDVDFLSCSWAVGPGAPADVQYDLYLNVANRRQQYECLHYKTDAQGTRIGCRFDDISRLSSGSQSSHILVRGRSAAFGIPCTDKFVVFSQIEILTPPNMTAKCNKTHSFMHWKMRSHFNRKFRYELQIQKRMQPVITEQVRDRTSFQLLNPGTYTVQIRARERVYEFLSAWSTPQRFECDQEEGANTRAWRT
Procedure: (§1) The chimeric and humanized anti-IL3Rα antibodies were tested in enzyme-linked immunosorbent assay (ELISA) format for binding to the IL-3Rαproteins described above. Briefly, each His-tagged IL-3Rαprotein purified by Ni Sepharose excel chromatography was diluted to 1 ng/mL in 50 mM sodium bicarbonate buffer pH 9.6, and 100 μL was added to each well. After a 16 hr incubation at 4° C., the plates were washed with Tris-buffered saline with 0.1% Tween-20 (TBST), then blocked with 200 μL blocking buffer (TBS with 1% BSA). Next, 100 μL of primary antibody, serially diluted in blocking buffer, was added in duplicate to the ELISA wells and incubated at room temperature for 1 hr. The plates were then washed 3 times with TBST before adding 100 μL of anti-human IgG (H+L)-HRP (Jackson ImmunoResearch) to each well. Once again the plates were incubated for 1 hr at room temperature followed by three washes with TBST. Finally, 100 μL of TMB one component HRP microwell substrate (Surmodics) was added to each well and incubated for 5 min. The reaction was stopped by adding 100 μL stopping solution (Surmodics) and absorbances were read at 450 nm.
(§2) Binding of the CD123 antibodies to the chimeric IL-3Rαproteins was evaluated in comparison to the wild type IL-3Rα.

[6] = biological target: T3, IL3Rα (101-306) chimeric receptor protein: GMRα residues 1-114 fused to IL3Rα residues 101-306, His-tagged (human, UniProt P15509 23-114); assay: ELISA on plate-coated His-tagged protein, A450
T3 construct: range 1-114; also called CRM domain of IL3Rα construct
T3 sequence: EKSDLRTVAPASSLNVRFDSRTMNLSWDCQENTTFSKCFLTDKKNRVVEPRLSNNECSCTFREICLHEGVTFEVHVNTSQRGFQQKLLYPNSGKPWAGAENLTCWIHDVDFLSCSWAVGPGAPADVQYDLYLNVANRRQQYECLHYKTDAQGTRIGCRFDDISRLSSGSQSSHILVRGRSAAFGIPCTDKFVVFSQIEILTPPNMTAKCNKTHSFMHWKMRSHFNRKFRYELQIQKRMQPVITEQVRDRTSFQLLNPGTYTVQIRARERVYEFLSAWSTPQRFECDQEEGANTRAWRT
Procedure: as §1, §2

[7] = biological target: T1, human CD123 (IL-3Rα, interleukin-3 …); assay: cell-based or functional assay; remark: listed apart in the source
[8] = biological target: T1, human CD123 (IL-3Rα, interleukin-3 …); assay: flow cytometry on HNT-34 cells, PE-conjugated goat anti-human secondary; remark: listed apart in the source
[9] = biological target: T1, human CD123 (IL-3Rα, interleukin-3 …); assay: flow cytometry on TF-1 cells; EC50 of the binding curve taken as apparent Kd; TF-1 cells
Procedure: Binding affinity was tested by flow cytometry using purified antibodies. […] TF-1 cells (5×10⁴ cells per sample) were incubated with varying concentrations of murine antibodies in 200 μL FACS buffer (DMEM medium supplemented with 2% normal goat serum). The cells were then pelleted, washed twice, and incubated for 1 hr with 100 μL of phycoerythrin (PE)-conjugated goat anti-mouse IgG-antibody (Jackson Laboratory). The cells were pelleted again, washed with FACS buffer and resuspended in 200 μL of PBS containing 1% formaldehyde. Samples were acquired using a FACSCalibur flow cytometer with the HTS multiwell sampler, or a FACS array flow cytometer, and analyzed using CellQuest Pro (all from BD Biosciences, San Diego, US). For each sample the geomean fluorescence intensity for FL2 was calculated and plotted against the antibody concentration in a semi-log plot. A dose-response curve was generated by non-linear regression and the EC₅₀ value of each curve, which corresponds to the apparent dissociation constant (Kd) of each antibody, was calculated using GraphPad Prism v4 (GraphPad software, San Diego, Calif.).

[10] = biological target: T1, human CD123 (IL-3Rα, interleukin-3 …); assay: flow cytometry on HNT-34 cells; EC50 of the binding curve taken as apparent Kd
[11] = biological target: T1, human CD123 (IL-3Rα, interleukin-3 …); assay: flow cytometry on MOLM-13 cells; apparent Kd; MOLM-13 cells
[12] = biological target: T1, human CD123 (IL-3Rα, interleukin-3 …); assay: flow cytometry on HNT-34 cells, against muCD123-6 of Example 5
[13] = biological target: T1, human CD123 (IL-3Rα, interleukin-3 …); assay: flow cytometry on HNT-34 cells, against muCD123-3 of Example 5

B1: huCD123-6Gv4.7S3 (antibody, human IgG1, kappa)
heavy: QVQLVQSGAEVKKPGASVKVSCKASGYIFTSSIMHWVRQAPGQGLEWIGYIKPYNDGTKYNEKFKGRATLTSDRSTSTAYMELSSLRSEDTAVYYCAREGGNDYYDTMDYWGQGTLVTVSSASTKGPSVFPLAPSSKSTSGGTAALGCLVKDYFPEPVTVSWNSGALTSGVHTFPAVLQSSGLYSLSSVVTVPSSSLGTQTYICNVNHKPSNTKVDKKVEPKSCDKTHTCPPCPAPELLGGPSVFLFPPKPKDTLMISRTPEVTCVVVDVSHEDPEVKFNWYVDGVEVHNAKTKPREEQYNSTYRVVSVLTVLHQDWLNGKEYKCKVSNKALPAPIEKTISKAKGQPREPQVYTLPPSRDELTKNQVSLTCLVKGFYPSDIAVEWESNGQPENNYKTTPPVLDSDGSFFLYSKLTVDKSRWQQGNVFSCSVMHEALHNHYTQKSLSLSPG
light: SIQMTQSPSSLSASVGDRVTITCRASQDINSYLSWFQQKPGKAPKTLIYRVNRLVDGVPSRFSGSGSGNDYTLTISSLQPEDFATYYCLQYDAFPYTFGQGTKVEIKRTVAAPSVFIFPPSDEQLKSGTASVVCLLNNFYPREAKVQWKVDNALQSGNSQESVTEQDSKDSTYSLSSTLTLSKADYEKHKVYACEVTHQGLSSPVTKSFNRGEC
notes: also called huCD123-6Gv4.7 clone (S3); CD123-6G4.7S3
Kd [1]: ~0.06 nM
fold higher affinity than the 7G3 antibody [2]: ≥ 30 fold
EC50 (read off the curve) [3]: ~0.05 nM
IC50, inhibition of IL-3 dependent proliferation of TF-1 cells [4]: 0.02 nM

B2: huCD123-6Gv4.7 (antibody, human IgG1, kappa)
heavy: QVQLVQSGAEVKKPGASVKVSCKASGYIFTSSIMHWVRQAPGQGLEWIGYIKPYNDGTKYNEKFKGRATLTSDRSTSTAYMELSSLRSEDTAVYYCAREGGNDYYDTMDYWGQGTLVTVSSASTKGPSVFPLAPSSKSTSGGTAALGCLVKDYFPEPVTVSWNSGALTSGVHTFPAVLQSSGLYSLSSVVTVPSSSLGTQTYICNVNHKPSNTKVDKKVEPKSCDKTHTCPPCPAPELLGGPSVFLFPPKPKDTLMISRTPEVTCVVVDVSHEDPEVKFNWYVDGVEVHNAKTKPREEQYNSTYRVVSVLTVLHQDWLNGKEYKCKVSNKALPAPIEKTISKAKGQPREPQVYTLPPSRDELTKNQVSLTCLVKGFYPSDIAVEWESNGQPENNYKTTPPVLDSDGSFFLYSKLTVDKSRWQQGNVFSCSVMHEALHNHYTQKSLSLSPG
light: B1 light with S1D
notes: CDR-grafted humanized antibody; also called version 4.7 (VL Gv4 and VH Gv7)
EC50 [5]: 0.106 nM
EC50 [6]: 0.145 nM

B3: huCD123-6Gv4.7S2 (antibody, human IgG1, kappa)
heavy: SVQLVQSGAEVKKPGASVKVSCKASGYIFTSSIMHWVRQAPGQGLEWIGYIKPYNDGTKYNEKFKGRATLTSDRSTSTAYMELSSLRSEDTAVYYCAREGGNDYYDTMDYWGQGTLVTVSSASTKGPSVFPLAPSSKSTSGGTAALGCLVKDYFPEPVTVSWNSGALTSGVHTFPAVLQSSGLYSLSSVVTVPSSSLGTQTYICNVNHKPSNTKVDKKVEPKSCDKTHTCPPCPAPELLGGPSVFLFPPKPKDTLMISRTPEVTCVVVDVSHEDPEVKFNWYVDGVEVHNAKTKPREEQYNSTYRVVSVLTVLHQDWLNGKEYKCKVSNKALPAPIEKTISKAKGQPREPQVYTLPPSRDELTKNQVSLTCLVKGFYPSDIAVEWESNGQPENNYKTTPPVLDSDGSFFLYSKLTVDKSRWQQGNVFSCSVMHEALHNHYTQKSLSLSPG
light: B1 light with S1D
notes: CDR-grafted humanized antibody with an engineered N-terminal Ser on the heavy chain; also called huCD123-6Gv4.7 clone (S2)
Kd [1]: ~0.06 nM
fold higher affinity than the 7G3 antibody [2]: ≥ 30 fold
IC50, inhibition of IL-3 dependent proliferation of TF-1 cells [4]: 0.02 nM

B4: huCD123-6Gv4.7-CysMab-D5 (antibody)
heavy: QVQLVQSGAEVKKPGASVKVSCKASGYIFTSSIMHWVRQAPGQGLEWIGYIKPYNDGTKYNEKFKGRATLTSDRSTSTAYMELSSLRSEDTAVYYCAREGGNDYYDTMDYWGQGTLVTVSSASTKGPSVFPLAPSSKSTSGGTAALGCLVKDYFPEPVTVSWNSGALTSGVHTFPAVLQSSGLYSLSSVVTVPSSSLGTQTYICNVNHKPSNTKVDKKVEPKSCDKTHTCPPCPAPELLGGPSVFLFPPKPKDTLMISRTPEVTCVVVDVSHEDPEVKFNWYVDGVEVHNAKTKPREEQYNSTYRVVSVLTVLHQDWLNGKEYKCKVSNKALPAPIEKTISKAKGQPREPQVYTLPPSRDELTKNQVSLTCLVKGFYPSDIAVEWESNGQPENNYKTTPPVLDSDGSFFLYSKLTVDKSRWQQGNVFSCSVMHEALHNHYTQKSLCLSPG
light: B1 light with S1D
modifications: D5 linked through the engineered Cys in the heavy chain CH3 domain (5th to the last residue of SEQ ID NO: 54; EU/OU position 442); 2 mol D5/mol antibody
notes: also called huCD123-CysMab-D5; Cys-linked D5 conjugate
Fold-specificity IC50 control ADC/IC50 huCD123-CysMab-D5, EOL-1 cells [7]: 1000 fold
Fold-specificity IC50 control ADC/IC50 huCD123-CysMab-D5, HNT-34 cells [7]: 1100 fold
Fold-specificity IC50 control ADC/IC50 huCD123-CysMab-D5, KASUMI-3 cells [7]: 100 fold
Fold-specificity IC50 control ADC/IC50 huCD123-CysMab-D5, KG-1 cells [7]: 95 fold
Fold-specificity IC50 control ADC/IC50 huCD123-CysMab-D5, KO52 cells [7]: 100 fold
Fold-specificity IC50 control ADC/IC50 huCD123-CysMab-D5, MOLM-1 cells [7]: > 167 fold
Fold-specificity IC50 control ADC/IC50 huCD123-CysMab-D5, MV4-11 cells [7]: 2000 fold
Fold-specificity IC50 control ADC/IC50 huCD123-CysMab-D5, Molm-13 cells [7]: 2000 fold
Fold-specificity IC50 control ADC/IC50 huCD123-CysMab-D5, SHI-1 cells [7]: > 3.33 fold
Fold-specificity IC50 control ADC/IC50 huCD123-CysMab-D5, SKM-1 cells [7]: 57 fold
Fold-specificity IC50 control ADC/IC50 huCD123-CysMab-D5, THP-1 cells [7]: 167 fold
Fold-specificity IC50 control ADC/IC50 huCD123-CysMab-D5, UCSD-AML1 cells [7]: 400 fold
IC50, in vitro cytotoxicity on EOL-1 cells [7]: 2 pmol
IC50, in vitro cytotoxicity on HNT-34 cells [7]: 1 pmol
IC50, in vitro cytotoxicity on KASUMI-3 cells [7]: 3 pmol
IC50, in vitro cytotoxicity on KG-1 cells [7]: 60 pmol
IC50, in vitro cytotoxicity on KO52 cells [7]: 20 pmol
IC50, in vitro cytotoxicity on MOLM-1 cells [7]: 120 pmol
IC50, in vitro cytotoxicity on MV4-11 cells [7]: 1 pmol
IC50, in vitro cytotoxicity on Molm-13 cells [7]: 0.5 pmol
IC50, in vitro cytotoxicity on SHI-1 cells [7]: 6 pmol
IC50, in vitro cytotoxicity on SKM-1 cells [7]: 7 pmol
IC50, in vitro cytotoxicity on THP-1 cells [7]: 30 pmol
IC50, in vitro cytotoxicity on UCSD-AML1 cells [7]: 1 pmol
EC50 (read off the curve) [8]: ~0.08 nM

B5: muCD123-6 (antibody, mouse IgG1, kappa, V domains shown)
VH: EFQLQQSGPELVKPGASVKMSCKASGYIFTSSIMHWMKQKPGQGLEWIGYIKPYNDGTKYNEKFKGKATLTSDKSSSTANMELNSLTSEDSAVYYCAREGGNDYYDTMDYWGQGTSVTVSS
VL: DIKMTQSPSSMYASLGERVTITCKASQDINSYLSWFQQKPGKSPKTLIYRVNRLVDGVPSRFSGSGSGQDYSLTISSLEYEDMGIYYCLQYDAFPYTFGGGTKLEIKR
notes: Murine monoclonal antibody purified from hybridoma supernatant; also called CD123Mu-6; CD123 Mu-6
Kd [1]: ~0.06 nM
IC50, inhibition of IL-3 dependent proliferation of TF-1 cells [4]: 0.05 nM
Kd [9]: 0.1 nM
Kd [10]: 0.07 nM

B6: chCD123-6 (antibody, human IgG1, V domains shown)
VH: B5 VH
VL: B5 VL
notes: also called chimeric CD123-6 antibody
Kd [1]: 0.04 nM and ~0.06 nM
Kd [11]: 0.08 nM
fold difference of Kd from the murine counterpart [12]: ≤ 2.5 fold
IC50, inhibition of IL3-dependent proliferation of TF-1 cells [4]: 0.03 nM
IC50, inhibition of IL-3 dependent proliferation of TF-1 cells [4]: 0.02 nM

B7: muCD123-3 (antibody, mouse IgG1, kappa, V domains shown)
VH: EFQLQQSGPEVVKPGASVKMSCKASGYTFTSYVMHWMKQKPGQGLEWIGYIKPYKDGTKYNEKFKGKATLISDKPSSTAYMELSSLTSEDSAVYYCAREGENGYYDAMDYWGQGTSVTVSS
VL: DIQMTQSPSSLSASLGGKVTITCKASQDINKYIAWYQHKPGKGPRLLIHYTSTLQPGIPSRFSGSGSGRDYSFSISNLEPEDIATYYCLQYDNLLYTFGGGTKLELKR
notes: Murine monoclonal antibody purified from hybridoma supernatant; also called CD123Mu-3; CD123 Mu-3
IC50, inhibition of IL-3 dependent proliferation of TF-1 cells [4]: 0.26 nM
Kd [9]: 0.3 nM
Kd [10]: 0.2 nM

B8: chCD123-3 (antibody, human IgG1, V domains shown)
VH: B7 VH
VL: B7 VL
notes: human IgG1 and Kappa are spelled out for chCD123-6 and the same vectors and constant regions were used; also called chimeric CD123-3 antibody
fold difference of Kd from the murine counterpart [13]: ≤ 2.5 fold
EC50 [5]: 0.274 nM
EC50 [6]: 0.852 nM
Kd [1]: 0.1 nM
Kd [11]: 0.2 nM
IC50, inhibition of IL3-dependent proliferation of TF-1 cells [4]: 0.1 nM

B9: muCD123-14 (antibody, mouse IgG1, kappa, V domains shown)
VH: EVKLVESGGDLVKPGGSLKLSCAASGFTFSNYAMSWVRQNSEKRLEWVATINSGGSFTYYPDSVKGRFTISRDNAKDSLYLQMSSLNSEDTAMYYCARQSEAYYGYDKRTWFAYWGQGTLVTVSS
VL: DILLTQSPAILSVSPGTRVSFSCRASQSVGTSIHWYQQRPNGFPRLLIKYASESISGIPSRFSGSGSGTDFTLNINSVESEDIADYYCQQSKSWPLTFGAGTKLELKR
notes: Murine monoclonal antibody purified from hybridoma supernatant; also called CD123Mu-14; CD123 Mu-14
IC50, inhibition of IL-3 dependent proliferation of TF-1 cells [4]: 0.08 nM
Kd [9]: 0.3 nM
Kd [10]: 0.5 nM
